Laboratory results taken from patent US20240026019A1 (Innovent, published 2024).
Positions count from the first letter of the chain named.

T1: human TNFR2 overexpressed on CHO-S cells (CHOS-hTNFR2) (human, UniProt P20333 23-461)
T1 construct: also called hTNFR2 CHO-S; human TNFR2 molecule overexpressed on CHO-S cells
T1 sequence: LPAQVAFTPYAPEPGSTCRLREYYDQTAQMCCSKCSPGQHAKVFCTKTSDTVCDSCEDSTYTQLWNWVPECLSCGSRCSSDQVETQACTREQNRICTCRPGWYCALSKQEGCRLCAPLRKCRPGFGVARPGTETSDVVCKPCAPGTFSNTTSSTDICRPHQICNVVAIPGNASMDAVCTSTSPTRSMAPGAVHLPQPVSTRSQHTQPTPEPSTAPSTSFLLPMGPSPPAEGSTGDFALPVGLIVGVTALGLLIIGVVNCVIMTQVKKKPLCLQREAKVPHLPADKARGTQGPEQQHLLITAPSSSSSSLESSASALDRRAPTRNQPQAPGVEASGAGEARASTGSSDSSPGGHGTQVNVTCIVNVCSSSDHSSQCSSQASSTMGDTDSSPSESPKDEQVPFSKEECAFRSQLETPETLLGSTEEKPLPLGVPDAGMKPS

T2: cynomolgus monkey TNFR2 overexpressed on CHO-S cells (CHOS-cTNFR2) (cynomolgus monkey, UniProt P20333 23-461 (human entry))
T2 construct: also called cTNFR2 CHO-S
T2 chain: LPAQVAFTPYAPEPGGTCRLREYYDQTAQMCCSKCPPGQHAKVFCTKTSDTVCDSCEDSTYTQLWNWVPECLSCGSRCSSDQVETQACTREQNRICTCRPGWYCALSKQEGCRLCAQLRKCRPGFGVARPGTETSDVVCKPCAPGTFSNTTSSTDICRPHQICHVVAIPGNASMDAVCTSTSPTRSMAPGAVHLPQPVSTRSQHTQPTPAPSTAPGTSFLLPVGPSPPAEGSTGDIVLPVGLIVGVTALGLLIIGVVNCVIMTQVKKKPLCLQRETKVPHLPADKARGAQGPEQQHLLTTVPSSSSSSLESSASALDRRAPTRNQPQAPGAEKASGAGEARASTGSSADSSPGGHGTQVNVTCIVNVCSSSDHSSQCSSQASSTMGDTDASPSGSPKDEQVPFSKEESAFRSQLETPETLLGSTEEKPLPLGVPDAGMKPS

T3: rh-TNFR2-His (recombinant human TNFR2, His tag) (human, UniProt P20333 23-257)
T3 construct: Soluble antigen of the ForteBio assay; not shown: His tag
T3 sequence (looked up): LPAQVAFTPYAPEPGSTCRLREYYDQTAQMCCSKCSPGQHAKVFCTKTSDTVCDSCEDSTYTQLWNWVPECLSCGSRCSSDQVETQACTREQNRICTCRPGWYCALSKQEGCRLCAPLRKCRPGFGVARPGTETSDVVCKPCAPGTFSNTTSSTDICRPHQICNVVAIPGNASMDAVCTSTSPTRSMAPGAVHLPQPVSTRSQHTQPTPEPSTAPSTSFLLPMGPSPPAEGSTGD

T4: CYNO-TNFR2-His (cynomolgus monkey TNFR2, His tag) (cynomolgus monkey, UniProt A0A2K5VET2 132-366)
T4 construct: Soluble antigen of the ForteBio assay; also called cTNFR2; not shown: His tag
T4 sequence: T3 sequence (looked up) with S16G, S36P, P117Q, N164H, E210A, S216G, M223V

B1: hybridoma antibody 69B1 (antibody, V domains shown)
VH: QIQLVQSGPELKKPGETVKISCKASGYTFTDYSMNWVKQAPGKGLKWMGWLNTETGEPIYADDFKGRFVFSLETSASTAYLEINNLNDEDTATYFCAREAIYYGTSYVLDYWGQGTSVTVSS
VL: DIVLTQSPASLAVSLGQRATISCRASESVEYYGTNFMQWYQQKPGQPPKLLIYSASNVESGVPARFSGSGSGTDFSLNIHPVEEDDIAVYFCQQSRKDPSTFGEGTNLEIK
notes: Murine antibody from the hybridoma (detected with anti-mouse IgG)
B2: chimeric antibody 72G8 (antibody, human IgG1, kappa, V domains shown)
VH: EVQLQQSGAELARPGASVMLSCKASGYTFTSYWMQWLKQRPGQGLEWIGAIYPGDGDTRYTQKFKGKATLTADKSSSTAYMQLSSLASEDSAVYYCVRDDGLYYAMDYWGQGTSVTVSS
VL: QIVLTQSPTIMSASLGERVTMTCTASSSVSSSYLHWYQQKPGSSPKLWIYSTSNLASGVPARFSGSGSGTSYSLTISSMEAEDAATYYCHQYHRSPPTFGGGTKLEIKR

Columns and labels:
[1] = target: T1, human TNFR2 overexpressed on CHO-S …; assay: flow cytometry on CHO-S cells overexpressing human TNFR2 (hybridoma antibodies), MFI
Description: (§1) In the study, the binding of the hybridoma antibodies (3C4, 69B1, and 72G8) of the present invention, after being diluted in a gradient, to a stable CHO-S cell strain overexpressing human TNFR2 on the surface was assayed by using a flow cytometer.
(§2) CHOS-hTNFR2 cells or CHOS-cTNFR2 cells were counted and diluted to 2×10⁶ cells/mL, and added to a U-bottom 96-well plate at 100 μL/well. The mixture was centrifuged at 300 g for 5 min, and the cell medium was removed. The dilutions of the samples (the hybridoma antibodies 3C4, 69B1, and 72G8 and the positive control antibody OPI) (the antibodies were subjected to a two-fold serial dilution in PBS from the maximum antibody concentration of 300 nM) were added to the U-plate, and the cells were resuspended at 100 μL/well and left to stand on ice for 30 min. The suspension was centrifuged at 400 g for 5 min, and the supernatant was removed. The cells were washed twice with PBS. The mixture was centrifuged at 300 g for 5 min, and PBS was removed. […] The mixture was centrifuged at 400 g for 5 min, and the supernatant was removed. The cells were washed 3 times with PBS. The cells were resuspended in 200 μL of 1×PBS and assayed by FACS.

[2] = target: T2, cynomolgus monkey TNFR2 overexpressed …; assay: flow cytometry on CHO-S cells overexpressing cynomolgus monkey TNFR2 (hybridoma antibodies), MFI
Description: as §1, §2

[3] = target: T3, rh-TNFR2-His (recombinant human TNFR2, …); assay: BLI (ForteBio), antibody on sensor, 100 nM rh-TNFR2-His in solution, 1:1 model
Description: (§3) In the present invention, the equilibrium dissociation constant (KD) for the binding of the 3 exemplary chimeric antibodies of the present invention described above to human TNFR2 (hTNFR2), cynomolgus monkey TNFR2 (cTNFR2), murine TNFR2(mTNFR2), and human TNFR1(hTNFR1) was determined by biological optical interferometry (ForteBio). For comparison, the equilibrium dissociation constant (KD) of a positive control antibody OPI (humanized antibody SBT-002e in WO 2017083525, VH sequence of SEQ ID NO: 58, VL sequence of SEQ ID NO: 59) was determined.
(§4) The ForteBio affinity assay was performed according to the prior art (Estep, P, et al., High throughput solution based measurement of antibody-antigen affinity and epitope binning. MAbs, 2013.5(2): p. 270-278). Briefly, a sensor was equilibrated offline in an assay buffer for 30 min, and was equilibrated online for 60 s to establish a baseline. The purified antibodies obtained as described above were loaded online onto an AHQ sensor (ForteBio) for the ForteBio affinity assay. The sensor with the loaded antibodies was then exposed to each of 100 nM hTNFR2, cTNFR2, mTNFR2, and hTNFR1 antigens for 5 min before transferring the sensor to an assay buffer for 5 min of dissociation for dissociation rate measurement. The kinetic analysis was performed using a 1:1 binding model.

[4] = target: T4, CYNO-TNFR2-His (cynomolgus monkey …); assay: BLI (ForteBio), antibody on sensor, 100 nM CYNO-TNFR2-His in solution, 1:1 model
Description: as §3, §4

[5] = target: T1, human TNFR2 overexpressed on CHO-S …; assay: flow cytometry on CHO-S cells overexpressing human TNFR2 (chimeric antibodies), MFI-FL2-A; unit taken from the axis Conc log(nM); the curve is still rising to about 29000 at log(nM) 2.5
Description: (§5) In the study, the binding of the chimeric antibodies of the present invention, after being diluted in a gradient, to a stable CHO-S cell strain overexpressing human TNFR2 on the surface was assayed by using a flow cytometer. cDNAs encoding human TNFR2 (SEQ ID NO: 60) and cynomolgus monkey TNFR2 (SEQ ID NO: 61) were cloned into pCH01.0 vectors (Invitrogen), which were transfected into CHO-S cells (Invitrogen) to produce CHO-S cells overexpressing human TNFR2 (CHOS-hTNFR2) and CHO-S cells overexpressing cynomolgus monkey TNFR2 (CHOS-cTNFR2).
(§6) CHOS-hTNFR2 cells or CHOS-cTNFR2 cells were counted and diluted to 2×10⁶ cells/mL, and added to a U-bottom 96-well plate at 100 μL/well. The mixture was centrifuged at 300 g for 5 min, and the cell medium was removed. The dilutions of the samples (the chimeric antibodies 3C4, 69B1, and 72G8 and the positive control antibody OPI) (the antibodies were subjected to a three-fold serial dilution in PBS from the maximum antibody concentration of 300 nM) were added to the U-plate, and the cells were resuspended at 100 μL/well and left to stand on ice for 30 min. The suspension was centrifuged at 400 g for 5 min, and the supernatant was removed. The cells were washed twice with PBS. The mixture was centrifuged at 300 g for 5 min, and PBS was removed. […]

[6] = target: T2, cynomolgus monkey TNFR2 overexpressed …; assay: flow cytometry on CHO-S cells overexpressing cynomolgus monkey TNFR2 (chimeric antibodies), MFI-FL2-A; unit taken from the axis Conc log(nM); the curve is still rising at log(nM) 2.5, no upper plateau
Description: as §5, §6

| Binder | EC50 (read off the curve) [1] | EC50 (read off the curve) [2] | Kd [3] | koff [3] | kon [3] | Kd [4] | koff [4] | kon [4] | EC50 [5] | EC50 [6] |
| --- | --- | --- | --- | --- | --- | --- | --- | --- | --- | --- |
| B1 | ~1 nM | ~1 nM |  |  |  |  |  |  |  |  |
| B2 |  |  | 4.51 nM | 0.00515 s⁻¹ | 1.14e+06 M⁻¹ s⁻¹ | 3.11 nM | 0.00509 s⁻¹ | 1.64e+06 M⁻¹ s⁻¹ | 28.4 nM | 122 nM |
